Assays:
MDA-MB-231 = experiment: Growth of MDA-MB-231 cells in three-dimensional (3D) organotypic model; assay type: cell-based, human; conditions: for growth and tumour mass development in extracellular matrix: MDA-MB-231, 50-100 μg/mL, day 6, versus control irrelevant IgG
Procedure: A highly aggressive triple-negative human breast cancer cell line MDA-MB-231 (ATCC® HTB-26™) was cultured according to recommended conditions in Dulbecco's Modified Eagle's Medium/Nutrient Mixture F-12 Ham medium supplemented with 10% foetal bovine serum (FBS), glutamine and penicillin and streptomycin. The cells were pre-treated in suspension for at least 1 hour at 37° C., to ensure proper binding of antibodies on the cell surface before they were placed in extracellular matrix. The cells cultures were observed every day and fresh treatments were done every other day. The antibodies were used at concentrations 50-100 μg/mL. Imaging of coverslip 3D assay (35 mm dish) was done on a NIKON light microscopy using both Phase contrast and Hoffman optics. Already at day 3, difference in growth of cells treated with either MAb 10C9 or MAb10G5 and cells treated with a control irrelevant IgG was observed.

Axl receptor protein = biological target: T1, Axl receptor protein (Homo sapiens, UniProt P30530); experiment: Western blot analysis of Axl receptor protein expression after antibody treatment; assay type: cell-based; conditions: MDA-MB-231 cells, 100 μg/mL, 20 hrs, versus irrelevant IgG or MAb#3
T1 construct: endogenous in cells; host or cells: MDA-MB-231
Procedure: Western blot analysis illustrating effect of treatment with either antibodies of multikinase inhibitor Foretinib on Axl receptor expression. Highly aggressive human mammary carcinoma cells MDA-MB-231 were treated with either antibodies (irrelevant IgG control and anti-Axl MAbs 10C9, 10G5 and MAb#3) or Foretinib for […] before loading on SDS-PAA gel. The levels of actin protein were used as loading controls.
The expression of Axl receptor protein in MBA-MD-231 cells treated with different antibodies was examined by Western blot analysis. The cells were seeded in a 6-well plate at density of 5×10^5 cells per well and cultured overnight before treatment initiation. The cells were treated for 20 hrs in the presence of isotype control (mouse IgG2b), anti-Axl antibodies (10C9, 10G5 and MAb#3) at concentrations of 100 μg/mL or multikinase inhibitor Foretinib (targets Met, Ron, Axl, Tie-2, and VEGFR2) at a concentration of 0.5 μM followed by harvesting by centrifugation at 1,200 rpm for 5 min and washing with sterile PBS. The cells were collected by centrifugation and resuspended in NP40-lysis buffer followed by 30 min incubation on ice. The cell lysates were cleared by centrifugation (12,000 rpm, 4° C., 5 min) and the protein concentrations were determined using BCA protein assay. […]

[1] = biological target: T2, mouse Axl (rmAxl-Fc chimera) (Mus musculus, UniProt Q00993); experiment: Biacore binding analysis on immobilized mouse Axl; conditions: 10 μg/mL, 25° C.
T2 construct: The soluble recombinant antigens corresponding to human Axl (rhAxl-Fc chimera; R&D Systems, Cat. no; 154-AL), mouse Axl (rmAxl-Fc chimera; purchased R&D Systems 854-AX
Procedure: The binding experiments were performed using Biacore 3000 instrument (GE Healthcare) at 25° C. The soluble recombinant antigens corresponding to human Axl (rhAxl-Fc chimera; R&D Systems, Cat. no. 154-AL), mouse Axl (rmAxl-Fc chimera; R&D Systems, R&D Systems; Cat. no. 854-AX) and human Tyro3 (rhTyro3/Dtk-Fc chimera; R&D Systems, Cat. no. 859-DK) were immobilized on the surface of CM5 sensor chip using amine coupling at the surface density of 1,308.0, 2,115.9 and 1,429.0 RU, respectively. The Biacore runs were performed in an automatic mode using Binding analysis wizard.
The sample containing either MAb 10C9, MAb 10G5 or recombinant mouse (rm) Axl-ligand Gas6 (R&D Systems, Cat. no. 986-GS/CF) at concentration 10 μg/mL in HBS-EP buffer (GE Healthcare) was injected over the surfaces with immobilized antigens at flow rate of 30 μL/min for 3 min (association) followed by 5 min dissociation.

MDA-MB-231 cells = experiment: Treatment of established stellate-shaped 3D tumour masses; assay type: cell-based, human; conditions: MDA-MB-231, 72 hours, versus control IgG
Procedure: Effect of anti-Axl antibodies 10C9 and 10G5 on established 3D organotypic tumour masses. The developed 9-days old stellate-shaped 3D organoid masses of human mammary carcinoma cells (MDA-MB-231) were treated with either control IgG or anti-Axl antibodies 10C9 and 10G5 for 72 hours. Images were captured using bright field; arrows indicate apoptotic, degrading stellate-shaped cells.
MDA-MB-231 cells were grown on extracellular matrix and allowed to form the highly aggressive stellate shaped morphology. Stellate-shaped tumour masses were then treated with the control IgG and antibodies 10C9 and 10G5, as described in EXAMPLE 7.

T2 sequence (Q00993 19-445 limits assumed, change not shown): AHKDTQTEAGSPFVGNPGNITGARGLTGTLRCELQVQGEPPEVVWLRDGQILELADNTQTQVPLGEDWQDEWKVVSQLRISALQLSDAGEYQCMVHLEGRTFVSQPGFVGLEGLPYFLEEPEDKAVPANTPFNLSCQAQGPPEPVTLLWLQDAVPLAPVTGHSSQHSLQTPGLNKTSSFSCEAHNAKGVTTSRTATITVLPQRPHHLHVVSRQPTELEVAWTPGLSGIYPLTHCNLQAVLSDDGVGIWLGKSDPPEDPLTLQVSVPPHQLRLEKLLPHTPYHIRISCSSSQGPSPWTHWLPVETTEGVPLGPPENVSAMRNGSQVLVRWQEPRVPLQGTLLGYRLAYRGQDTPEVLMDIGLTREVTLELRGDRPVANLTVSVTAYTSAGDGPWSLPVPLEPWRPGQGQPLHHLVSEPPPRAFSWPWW

B1: 10C9: mouse anti-Axl monoclonal antibody from hybridoma UT-10C9-B9, IgG2b; VH SEQ ID NO: 3, VL SEQ ID NO: 4 (antibody, listed as Mus musculus, V domains shown)
VH: QVQLQQPGPELVKPGASVKISCKTSDYNFTRYYIHWVKQRPGQGLEWIGWIYPGTGDSKYNEKFKGRATLTADTSSSTAYMQLSSQTSEDSAVYFCARNGNYWYFDVWGAGTAVTVSS
VL: DIVMTQAAPSGPVTPGESVSISCRSSKSLLHSNGNTYLYWFLQRPGQSPQLLIYRMSNLASGVPDRFSGSGSGTAFTLRISRVEAEDVGIYYCMQHREYPFTFGGGTKLEIK
With B1 the “growth and tumour mass development in extracellular matrix” value (MDA-MB-231) was “significantly inhibited growth and tumour mass development”, the “Axl protein level (Western blot)” value (Axl receptor protein) was “significant reduction in the amount of Axl receptor protein” and the “binding to mouse Axl” value [1] was “no binding”. The “effect on established stellate-shaped 3D tumour masses” value (MDA-MB-231 cells) was “degradation of stellate patterns”.

B2: 10G5: mouse anti-Axl monoclonal antibody from hybridoma WR-10G5-E5, IgG1; VH SEQ ID NO: 21, VL SEQ ID NO: 22 (antibody, listed as Mus musculus, V domains shown)
VH: QVQLQQSGAELVRPGASVKLSCKASGYSFTDFYINWVRQRPGQGLEWIARIFPGGDNTYYNEKFKGKATLTAEESSSTAYIQLSSLTSEDSAVYFCARRGLYYAMDYWGQGISVTVSS
VL: DVLMTQTPLSLPVSLGDQASISCRSSQSLVHSNGIPYLHWYLQKPGQSPKLLIYRVSNRFSGVPDRFSGSGSGTDFTLKISRVEAEDLGVYFCSQGTHVPPTFGGGTKLEIK
B2 was tested, and the “viability of treated cells (nuclei staining)” value (MDA-MB-231; MDA-MB-231 3D culture) was “still viable”, the “growth and tumour mass development in extracellular matrix” value (MDA-MB-231) was “significantly inhibited growth and tumour mass development” and the “Axl protein level (Western blot)” value (Axl receptor protein) was “significant reduction of Axl protein”. For the same molecule, the “binding to mouse Axl” value [1] was “no binding” and the “effect on established stellate-shaped 3D tumour masses” value (MDA-MB-231 cells) was “degradation of stellate patterns”.
